Patent US20220228157A1, “GENE EDITING IN DIVERSE BACTERIA” (priority 2019, published 2022)

Columns and labels:
[1] = target: E. coli single-stranded binding protein (EcSSB) (E. coli) (UniProt P0AGE0); test: cell-based or functional assay; conditions: scale: fold improved over the RecT protein alone
[2] = target: EcSSBΔ9 (EcSSB with a 9-amino-acid C-terminal deletion) (E. coli) (UniProt P0AGE0); test: cell-based or functional assay
[3] = target: L. lactis single-stranded binding protein (LlSSB) (L. lactis) (UniProt Q9CDM9); test: cell-based or functional assay
[4] = target: LlSSB C7:EcSSB (L. lactis SSB with its last 7 C-terminal residues replaced by those of EcSSB) (L. lactis) (UniProt Q9CDM9); test: cell-based or functional assay
[5] = target: LlSSB C8:EcSSB (L. lactis SSB with its last 8 C-terminal residues replaced by those of EcSSB) (L. lactis) (UniProt Q9CDM9); test: cell-based or functional assay
[6] = target: PaSSB (Pseudomonas aeruginosa single-stranded binding protein) (Pseudomonas aeruginosa) (UniProt P40947); test: cell-based or functional assay
E. coli [7] = test: Fifteen cycles of MAGE with pool of 15 oligos, editing efficiency by NGS; type: cell-based, Escherichia coli; conditions: 15 separate mutations, one week
Procedure: E. coli populations expressing either an efficient SSAP (SEQ ID NO: 157), an efficient SSAP/SSB pair (SEQ ID NO: 157/SEQ ID NO: 384), or the widely-used Redβ were taken through fifteen cycles of MAGE and transformed each cycle with a 10 μM pool comprising 15 unique oligos. Editing efficiency at each targeted locus was measured by NGS and averaged (FIG. 3).

[8] = tested on: Agrobacterium tumefaciens; test: Oligo-recombineering efficiency of SSAP/SSB library members; type: cell-based; conditions: A. tumefaciens, after two rounds of selection
Procedure: A library of the most broadly-acting three (3) SSAPs and twenty five (25) SSBs was cloned into an Agrobacterium tumefaciens (A. tumefaciens) vector (75-member library). The library was selected for efficient genome editing, and oligo-recombineering. Efficiency was measured from the two most frequent members of the library after two rounds of selection. Editing efficiency of close to 1% was measured in SSAP SEQ ID NO: 143/SSB SEQ ID NO: 310. […] A. tumefaciens is quite distantly related to E. coli, L. lactis, and M. smegmatis (FIG. 7).

E. coli [9] = test: Editing efficiency by NGS, non-coding mismatch at a non-essential gene; type: cell-based, Escherichia coli; conditions: versus Redβ expressed off wild-type codons
Procedure: Top-performing SSAPs and SSAP/SSB pairs from experiments in E. coli, L. lactis, and M. smegmatis are shown in FIG. 2A, FIG. 2B and FIG. 2C, respectively. Bars in red are the proteins that had previously been reported in the literature. The proteins listed were found after ten rounds of selection for protein variants that enabled the introduction of an oligonucleotide that conferred a genomic edit that provided antibiotic resistance. Unbiased editing efficiency was tested in each case by introducing a non-coding base change at a non-essential gene and measuring the frequency of incorporation via next generation sequencing.
Their recombineering efficiency was tested against Redβ expressed off of its wild-type codons on the same plasmid system used for the SEER selections. […]
The efficiency of each SSAP or SSAP/SSB pair was measured by expressing them off of their host-specific plasmid in the naïve parent strain and running a recombineering cycle with an oligo that confers a 4-nucleotide non-coding mismatch in a non-essential gene. The allele was then amplified by PCR and editing efficiency was measured by next-generation sequencing.
To measure single locus editing, a recombineering cycle was run with an oligo that confers a single base pair non-coding mismatch in a non-essential gene. The allele was then amplified by PCR and editing efficiency was measured by NGS as described above. […]

Redβ single-stranded annealing protein (SSAP) from Enterobacteria phage λ (from UniProt P03698 1-261)
editing efficiency in L. lactis, pair against the RecT protein alone [1]: 483
genome editing efficiency in L. lactis (fold lower than Redβ with EcSSB) [2]: 44
genome editing efficiency in L. lactis (fold less than Redβ with EcSSB) [3]: 38.5
editing rate in L. lactis (fold of Redβ with EcSSB) [4]: 5.9
editing rate in L. lactis (fold of Redβ with EcSSB) [5]: 2.6
editing efficiency in C. crescentus (fold over Redβ alone) [6]: 15
editing efficiency in C. crescentus after expression optimization and evasion of mismatch repair (fold higher than Redβ alone) [6]: 112
editing efficiency in C. crescentus after expression optimization and evasion of mismatch repair (fold over the background level) [6]: 873

B1: SEQ ID NO: 157/SEQ ID NO: 384: efficient SSAP/SSB pair co-expressed in E. coli (protein, listed as Clostridium sordellii)
chain 1: MNQIVKFTDDSGLAVQVTPDDVRRYICENATEKEVGLFLQLCQTQRLNPFVKDAYLVKYGGAPASMITSYQVFNRRACRDANYDGIKSGVVVLRDGDVVHKRGAACYKKAGEELIGGWAEVRFKDGRETAYAEVALDDYSTGKSNWAKMPGVMIEKCAKAAAWRLAFPDTFQGMYAAEEMDQAQQPEQVRAQAEQPVDLQPIRELFKPYCEHFGITPAEGMTAVCGAVGAEGMHSMTEQQARRARAWMEEEMAAPAVEAEYEVVDEGEVF
chain 2: MNHVVLVGRLTKDPELRYIPGTGTAVATFTIAIDRDYAKKDGSRETDFIPVEVMGKSAEFCANYISKGRLVALQGSIRVDNYQNQSGERRTFTKVSARNIQALDSNKNRSDSPYPSQNQSFEPSFEPSFEPTGLDPQGFQAIDDDDIPF
modifications: Collinsella stercoris DSM 13279
notes: efficient SSAP/SSB pair co-expressed in E. coli
Editing efficiency, averaged over targeted loci (E. coli [7]): ~100%

B2: SSAP SEQ ID NO: 143/SSB SEQ ID NO: 310: co-expressed SSAP/SSB pair (protein, listed as Helicobacter pullorum)
chain 1: MAENEKQALLQEENKSENVVSTVKRTALATNPFSDTDQFNNIFKMAQLISQSDMIPATYKGKPMNCVIALEQANRMGVSPLMVMQNLYVVKGVPSWSGQGCMMIIQGCGKFRDVDYVYSGEKGTDSRSCKVVATRISDGKRIEGTEITMQMVKSEGWISNTKWKNMPEQMLGYRAATFFARMYCPNELNGFATEGEAEDMNHKPQRIEAINVLGDTAHE
chain 2: MFNKVILVGNLTRDVELRYLPSGAALARLNLATNRRYKKQDGTQAEEVCFIDVNLFGRTAEVANQYLKKGSQVLIEGRLVLESWTDNTGAKRTKHSITAESMQMLGQRQSTQEENHDYGAGDYNNYQEYEKPAYTASAAPKAQPVQKEPELPVIDINDDEIPF
modifications: Clostridium sp FS41
notes: co-expressed SSAP/SSB pair
Editing efficiency [8]: ~1%

B3: codon-optimized version of Redβ: Redβ expressed from the codon-optimized gene included in Broad SSAP Library (protein, UniProt P03698 1-261, looked up)
Recombination protein bet: MSTALATLAGKLAERVGMDSVDPQELITTLRQTAFKGDASDAQFIALLIVANQYGLNPWTKEIYAFPDKQNGIVPVVGVDGWSRIINENQQFDGMDFEQDNESCTCRIYRKDRNHPICVTEWMDECRREPFKTREGREITGPWQSHPKRMLRHKAMIQCARLAFGFAGIYDKDEAERIVENTAYTAERQPERDITPVNDETMQEINTLLIALDKTWDDDLLPLCSQIFRRDIRASSELTQAEAVKALGFLKQKAAEQKVAA
modifications: expressed from codon-optimized gene
notes: Redβ expressed from the codon-optimized gene included in Broad SSAP Library
Effect of codon usage on editing efficiency (E. coli [9]): significantly decreased efficiency
